One block for each binder: values may come before it.
Assays:
[1] = target: T1, MAGEA1 peptide on HLA-B*44:03 (human); assay: cytokine release
T1 peptide: AETSYVKVL

[2] = target: T2, MAGEA1 peptide on HLA-B*44:03 (human); assay: cytokine release
T2 peptide: AETSYVKVLE

[3] = target: T3, MAGEA1 peptide on HLA-B*44:03 (human); assay: cytokine release
T3 peptide: ALAETSYVKV

[4] = target: T4, MAGEA1 peptide on HLA-B*44:03 (human); assay: luciferase kill assay, 18 h; TCR-transduced CD8+ T cells against K562-HLA-B4403-MAGE-A1, cells that express the antigen (full-length MAGEA1); two donors; full-length, on cells
T4 peptide: LAETSYVKVL

[5] = target: T5, MAGEA1 peptide on HLA-A*02:01 (human); assay: cytokine release
T5 peptide: VKVLEYVIKV

[6] = target: T6, MAGEA1 peptide on HLA-A*02:01 (human); assay: cytokine release
T6 peptide: KVLEYVIKVS

[7] = target: T7, MAGEA1 peptide on HLA-A*02:01 (human); assay: luciferase kill assay, 18 h; TCR-transduced CD8+ T cells against K562-HLA-A0201-MAGE-A1, cells that express the antigen (full-length MAGEA1); full-length, on cells
T7 peptide: KVLEYVIKV

[8] = target: T8, MAGEA1 peptide on HLA-A*03:01 (human); assay: cytokine release
T8 peptide: SLFRAVITKK

[9] = target: T9, MAGEA1 peptide on HLA-A*03:01 (human); assay: cytokine release
T9 peptide: ESLFRAVITK

[10] = target: T10, MAGEA1 peptide on HLA-A*03:01 (human); assay: cytokine release
T10 peptide: LFRAVITKK

[11] = target: T11, MAGEA1 peptide on HLA-A*29:02 (human); assay: cytokine release
T11 peptide: LVGFLLLKY

[12] = target: T12, MAGEA1 peptide on HLA-A*29:02 (human); assay: cytokine release
T12 peptide: DLVGFLLLKY

[13] = target: T13, MAGEA1 peptide on HLA-A*26:01 (human); assay: cytokine release
T13 peptide: EVYDGREHSA

[14] = target: T14, MAGEA1 peptide on HLA-B*44:03 (human); assay: killing
T14 peptide: EEGPSTSCI

[15] = target: T15, MAGEA1 peptide on HLA-B*07:02 (human); assay: cytokine release
T15 peptide: ARVRFFFPSL

[16] = target: T16, MAGEA1 peptide on HLA-B*07:02 (human); assay: cytokine release
T16 peptide: RVRFFFPSLR

[17] = target: T17, MAGEA1 peptide on HLA-B*07:02 (human); assay: luciferase kill assay, 18 h; TCR-transduced CD8+ T cells against K562-HLA-B0702-MAGE-A1, cells that express the antigen (full-length MAGEA1); full-length, on cells
T17 peptide: RVRFFFPSL

[18] = target: T18, MAGEA1 peptide on HLA-B*44:03 (human); assay: killing
T18 peptide: KVADLVGFLL

[19] = target: T19, MAGEA1 peptide on HLA-B*44:03 (human); assay: cytokine release
T19 peptide: VADLVGFLL

[20] = target: T20, MAGEA1 peptide on HLA-B*44:03 (human); assay: cytokine release
T20 peptide: ADLVGFLLLK

[21] = target: T21, MAGEA1 peptide on HLA-B*57:03 (human); assay: cytokine release
T21 peptide: VADLVGFLL

[22] = target: T22, MAGEA1 peptide on HLA-B*57:03 (human); assay: cytokine release
T22 peptide: KVADLVGFL

B1: TCR5 (TCR, V domains shown)
Valpha: GQQLNQSPQSMFIQEGEDVSMNCTSSSIFNTWLWYKQEPGEGPVLLIALYKAGELTSNGRLTAQFGITRKDSFLNISASIPSDVGIYFCAGLRDNYGQNFVFGPGTRLSVLP
Vbeta: DGGITQSPKYLFRKEGQNVTLSCEQNLNHDAMYWYRQDPGQGLRLIYYSQIVNDFQKGDIAEGYSVSREKKESFPLTVTSAQKNPTAFYLCASRVGGFEGYTFGSGTRLTVV
binding result [1]: recognises
binding result [2]: recognises
binding result [3]: recognises
EC50 killing capacity (E:T ratio at which 50% of target cells were killed) [4]: 0.4 E:T ratio

B2: TCR20 (TCR, V domains shown)
Valpha: QKEVEQNSGPLSVPEGAIASLNCTYSDRGSQSFFWYRQYSGKSPELIMFIYSNGDKEDGRFTAQLNKASQYVSLLIRDSQPSDSATYLCAVNAPRPGYSTLTFGKGTMLLVSP
Vbeta: DVKVTQSSRYLVKRTGEKVFLECVQDMDHENMFWYRQDPGLGLRLIYFSYDVKMKEKGDIPEGYSVSREKKERFSLILESASTNQTSMYLCASSLSMNTEAFFGQGTRLTVV
binding result [5]: recognises
binding result [6]: recognises
EC50 killing capacity (E:T ratio at which 50% of target cells were killed) [7]: 0.8 E:T ratio

B3: TCR22 (TCR, V domains shown)
Valpha: SQQGEEDPQALSIQEGENATMNCSYKTSINNLQWYRQNSGRGLVHLILIRSNEREKHSGRLRVTLDTSKKSSSLLITASRAADTASYFCATDEGGAQKLVFGQGTRLTINP
Vbeta: DVKVTQSSRYLVKRTGEKVFLECVQDMDHENMFWYRQDPGLGLRLIYFSYDVKMKEKGDIPEGYSVSREKKERFSLILESASTNQTSMYLCATVGRGEDRGEQFFGPGTRLTVL
binding result [8]: recognises
binding result [9]: recognises
binding result [10]: recognises

B4: TCR4 (TCR, V domains shown)
Valpha: AQSVTQLGSHVSVSEGALVLLRCNYSSSVPPYLFWYVQYPNQGLQLLLKYTSAATLVKGINGFEAEFKKSETSFHLTKPSAHMSDAAEYFCAVSNSGNTPLVFGKGTRLSVIA
Vbeta: AAGVIQSPRHLIKEKRETATLKCYPIPRHDTVYWYQQGPGQDPQFLISFYEKMQSDKGSIPDRFSAQQFSDYHSELNMSSLELGDSALYFCASSSTTGDGYTFGSGTRLTVV
binding result [11]: recognises
binding result [12]: recognises

B6: TCR8 (TCR, V domains shown)
Valpha: GQNIDQPTEMTATEGAIVQINCTYQTSGFNGLFWYQQHAGEAPTFLSYNVLDGLEEKGRFSSFLSRSKGYSYLLLKELQMKDSASYLCAPSSNTGKLIFGQGTTLQVKP
Vbeta: DAGVIQSPRHEVTEMGQEVTLRCKPISGHNSLFWYRQTMMRGLELLIYFNNNVPIDDSGMPEDRFSAKMPNASFSTLKIQPSEPRDSAVYFCASSLPQETQYFGPGTRLLVL
binding result [14]: recognises

Further lines, with some results ahead:

binding result [13]: recognises
B5: TCR2 (TCR, V domains shown)
Valpha: AQKITQTQPGMFVQEKEAVTLDCTYDTSDPSYGLFWYKQPSSGEMIFLIYQGSYDQQNATEGRYSLNFQKARKSANLVISASQLGDSAMYFCASREGSARQLTFGSGTQLTVLP
Vbeta: DVKVTQSSRYLVKRTGEKVFLECVQDMDHENMFWYRQDPGLGLRLIYFSYDVKMKEKGDIPEGYSVSREKKERFSLILESASTNQTSMYLCASDSADTQYFGPGTRLTVL

binding result [8]: recognises
binding result [9]: recognises
binding result [10]: recognises
B7: TCR24 (TCR, V domains shown)
Valpha: KNQVEQSPQSLIILEGKNCTLQCNYTVSPFSNLRWYKQDTGRGPVSLTIMTFSENTKSNGRYTATLDADTKQSSLHITASQLSDSASYICVVSNNAGNMLTFGGGTRLMVKP
Vbeta: DAMVIQNPRYQVTQFGKPVTLSCSQTLNHNVMYWYQQKSSQAPKLLFHYYDKDFNNEADTPDNFQSRRPNTSFCFLDIRSPGLGDTAMYLCATSRESLGRDEQFFGPGTRLTVL

binding result [15]: recognises
binding result [16]: recognises
B8: TCR18.2 (TCR, V domains shown)
Valpha: GQQVMQIPQYQHVQEGEDFTTYCNSSTTLSNIQWYKQRPGGHPVFLIQLVKSGEVKKQKRLTFQFGEAKKNSSLHITATQTTDVGTYFCANRDNYGQNFVFGPGTRLSVLP
Vbeta: EAQVTQNPRYLITVTGKKLTVTCSQNMNHEYMSWYRQDPGLGLRQIYYSMNVEVTDKGDVPEGYKVSRKEKRNFPLILESPSPNQTSLYFCASTRTGTLPEAFFGQGTRLTVV
EC50 killing capacity (E:T ratio at which 50% of target cells were killed) [17]: 20 E:T ratio

binding result [15]: recognises
binding result [16]: recognises
B9: TCR18.1 (TCR, V domains shown)
Valpha: GQQVMQIPQYQHVQEGEDFTTYCNSSTTLSNIQWYKQRPGGHPVFLIQLVKSGEVKKQKRLTFQFGEAKKNSSLHITATQTTDVGTYFCANRDNYGQNFVFGPGTRLSVLP
Vbeta: EAQVTQNPRYLITVTGKKLTVTCSQNMNHEYMSWYRQDPGLGLRQIYYSMNVEVTDKGDVPEGYKVSRKEKRNFPLILESPSPNQTSLYFCASSRTSGISYEQYFGPGTRLTVT

binding result [15]: recognises
binding result [16]: recognises
B10: TCR23 (TCR, V domains shown)
Valpha: AQKVTQAQTEISVVEKEDVTLDCVYETRDTTYYLFWYKQPPSGELVFLIRRNSFDEQNEISGRYSWNFQKSTSSFNFTITASQVVDSAVYFCALSVTYTGNQFYFGTGTSLTVIP
Vbeta: DSGVTQTPKHLITATGQRVTLRCSPRSGDLSVYWYQQSLDQGLQFLIQYYNGEERAKGNILERFSAQQFPDLHSELNLSSLELGDSALYFCASSVQGQGTDTQYFGPGTRLTVL

binding result [19]: recognises
binding result [20]: recognises
B11: TCR6 (TCR, V domains shown)
Valpha: QKEVEQNSGPLSVPEGAIASLNCTYSDRGSQSFFWYRQYSGKSPELIMFIYSNGDKEDGRFTAQLNKASQYVSLLIRDSQPSDSATYLCAVSSNTGKLIFGQGTTLQVKP
Vbeta: DAGVIQSPRHEVTEMGQEVTLRCKPISGHNSLFWYRQTMMRGLELLIYFNNNVPIDDSGMPEDRFSAKMPNASFSTLKIQPSEPRDSAVYFCASKWGQGAGDTQYFGPGTRLTVL
binding result [18]: recognises

binding result [15]: recognises
binding result [16]: recognises
B12: TCR19 (TCR, V domains shown)
Valpha: AQTVTQSQPEMSVQEAETVTLSCTYDTSENNYYLFWYKQPPSRQMILVIRQEAYKQQNATENRFSVNFQKAAKSFSLKISDSQLGDTAMYFCAFISGYSTLTFGKGTMLLVSP
Vbeta: EAQVTQNPRYLITVTGKKLTVTCSQNMNHEYMSWYRQDPGLGLRQIYYSMNVEVTDKGDVPEGYKVSRKEKRNFPLILESPSPNQTSLYFCASRTSHPQTYEQYFGPGTRLTVT

binding result [21]: recognises
binding result [22]: recognises
B13: TCR1 (TCR, V domains shown)
Valpha: GNSVTQMEGPVTLSEEAFLTINCTYTATGYPSLFWYVQYPGEGLQLLLKATKADDKGSNKGFEATYRKETTSFHLEKGSVQVSDSAVYFCALSGGGSYIPTFGRGTSLIVHP
Vbeta: EAGVAQSPRYKIIEKRQSVAFWCNPISGHATLYWYQQILGQGPKLLIQFQNNGVVDDSQLPKDRFSAERLKGVDSTLKIQPAKLEDSAVYLCASSSPGQLNTEAFFGQGTRLTVV

From patent EP4328239A1 (dated 2024)
